Measured values as given in patent publication US10941182 (Amgen, dated 2021).
Starred links: 1 amine or outer side, 2 acyl side, 3 side chain; linkers in the order of their positions; H or OH if unused. Non-standard residues stand in square brackets, D forms with d. *: point of attachment. AC4Abu = α-carboxy-4-aminobutyric acid, O=C(C(CCN[*:1])C(=O)[*:3])[*:2]; Oic = O=C(O)[C@@H]1C[C@@H]2CCCC[C@@H]2N1; Phe(4-Cl) = N[C@@H](Cc1ccc(Cl)cc1)C(=O)O; γGlu = O=C(O)[C@H](CCC(=O)[*:2])N[*:1]; 2Nal = N[C@@H](Cc1ccc2ccccc2c1)C(=O)O; NMeR = CN[C@@H](CCCNC(=N)N)C(=O)O; Tridecanoyl = CCCCCCCCCCCCC(=O)*; Nle = CCCC[C@H](N)C(=O)O; AEEA = NCCOCCOCC(=O)O; βAla = NCCC(=O)O

What was measured:
rat APJ receptor = target: T1, rat APJ receptor (rat, UniProt Q9JHG3 1-377); experiment: cell-based or functional assay
T1 sequence (looked up): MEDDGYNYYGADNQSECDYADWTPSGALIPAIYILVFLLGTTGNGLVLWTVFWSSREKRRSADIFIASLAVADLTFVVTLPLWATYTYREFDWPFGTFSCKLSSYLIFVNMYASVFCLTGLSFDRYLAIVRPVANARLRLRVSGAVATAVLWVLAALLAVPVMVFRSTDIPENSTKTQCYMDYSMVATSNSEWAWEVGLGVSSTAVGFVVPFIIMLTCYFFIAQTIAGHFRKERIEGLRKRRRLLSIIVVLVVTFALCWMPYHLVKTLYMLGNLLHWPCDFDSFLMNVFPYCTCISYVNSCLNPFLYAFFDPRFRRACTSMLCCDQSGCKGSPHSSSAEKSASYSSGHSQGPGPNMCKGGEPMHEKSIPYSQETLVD

human APJ receptor = target: T2, human APJ receptor (human, UniProt P35414 1-380); experiment: cell-based or functional assay
T2 sequence (looked up): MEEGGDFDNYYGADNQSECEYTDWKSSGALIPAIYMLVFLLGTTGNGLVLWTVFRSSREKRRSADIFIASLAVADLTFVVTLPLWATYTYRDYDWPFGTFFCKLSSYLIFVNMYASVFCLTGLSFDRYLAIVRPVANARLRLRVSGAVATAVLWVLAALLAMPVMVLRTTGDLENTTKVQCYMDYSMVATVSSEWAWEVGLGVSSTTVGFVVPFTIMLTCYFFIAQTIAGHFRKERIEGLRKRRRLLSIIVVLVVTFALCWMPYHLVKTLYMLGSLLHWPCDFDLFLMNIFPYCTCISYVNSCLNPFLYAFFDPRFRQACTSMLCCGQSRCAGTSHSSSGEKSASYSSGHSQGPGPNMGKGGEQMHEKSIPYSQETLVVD

B1: Apelin polypeptide SEQ ID NO: 448 (peptide)
peptide: Tridecanoyl-[γGlu][AEEA][AEEA]QRP[NMeR]LSHHGP[Nle]P[Phe(4-Cl)]-OH
SMILES: CCCCCCCCCCCCC(=O)N[C@@H](CCC(=O)NCCOCCOCC(=O)NCCOCCOCC(=O)N[C@@H](CCC(N)=O)C(=O)N[C@@H](CCCNC(=N)N)C(=O)N1CCC[C@H]1C(=O)N(C)[C@@H](CCCNC(=N)N)C(=O)N[C@@H](CC(C)C)C(=O)N[C@@H](CO)C(=O)N[C@@H](Cc1c[nH]cn1)C(=O)N[C@@H](Cc1c[nH]cn1)C(=O)NCC(=O)N1CCC[C@H]1C(=O)N[C@@H](CCCC)C(=O)N1CCC[C@H]1C(=O)N[C@@H](Cc1ccc(Cl)cc1)C(=O)O)C(=O)O
Rat APJ receptor
  EC50 Rat APJ Receptor (GTPγS assay): 306 pM
Human APJ receptor
  EC50 Human APJ Receptor (GTPγS assay): 134 pM

B2: Apelin polypeptide SEQ ID NO: 402 (peptide)
peptide: Tridecanoyl-[AC4Abu][AEEA][AEEA]QRP[NMeR]LSHKGP[Nle][Phe(4-Cl)]-OH
SMILES: CCCCCCCCCCCCC(=O)NCCC(C(=O)O)C(=O)NCCOCCOCC(=O)NCCOCCOCC(=O)N[C@@H](CCC(N)=O)C(=O)N[C@@H](CCCNC(=N)N)C(=O)N1CCC[C@H]1C(=O)N(C)[C@@H](CCCNC(=N)N)C(=O)N[C@@H](CC(C)C)C(=O)N[C@@H](CO)C(=O)N[C@@H](Cc1c[nH]cn1)C(=O)N[C@@H](CCCCN)C(=O)NCC(=O)N1CCC[C@H]1C(=O)N[C@@H](CCCC)C(=O)N[C@@H](Cc1ccc(Cl)cc1)C(=O)O
Rat APJ receptor
  EC50 Rat APJ Receptor (GTPγS assay): 246 pM
Human APJ receptor
  EC50 Human APJ Receptor (GTPγS assay): 100 pM

B3: Apelin polypeptide SEQ ID NO: 401 (peptide)
peptide: XXXQRPRLSHKGPXPF
modifications: {TDA}[AC4Abu][Aeea][Aeea]QRP[NMeArg]LSHKGP[Nle][aMePro][4-Cl-F]{COOH}
Rat APJ receptor
  EC50 Rat APJ Receptor (GTPγS assay): 352 pM
Human APJ receptor
  EC50 Human APJ Receptor (GTPγS assay): 81.6 pM

B4: Apelin polypeptide SEQ ID NO: 403 (peptide)
peptide: Tridecanoyl-[AC4Abu][AEEA][AEEA]QRP[NMeR]LSHKGP[Nle][2Nal]-OH
SMILES: CCCCCCCCCCCCC(=O)NCCC(C(=O)O)C(=O)NCCOCCOCC(=O)NCCOCCOCC(=O)N[C@@H](CCC(N)=O)C(=O)N[C@@H](CCCNC(=N)N)C(=O)N1CCC[C@H]1C(=O)N(C)[C@@H](CCCNC(=N)N)C(=O)N[C@@H](CC(C)C)C(=O)N[C@@H](CO)C(=O)N[C@@H](Cc1c[nH]cn1)C(=O)N[C@@H](CCCCN)C(=O)NCC(=O)N1CCC[C@H]1C(=O)N[C@@H](CCCC)C(=O)N[C@@H](Cc1ccc2ccccc2c1)C(=O)O
Rat APJ receptor
  EC50 Rat APJ Receptor (GTPγS assay): 8100 pM
Human APJ receptor
  EC50 Human APJ Receptor (GTPγS assay): 2630 pM

B5: Apelin polypeptide SEQ ID NO: 352 (peptide)
peptide: Tridecanoyl-[γGlu][AEEA][AEEA]QRP[NMeR]LSHKG[Oic][Nle]P[Phe(4-Cl)]-OH
SMILES: CCCCCCCCCCCCC(=O)N[C@@H](CCC(=O)NCCOCCOCC(=O)NCCOCCOCC(=O)N[C@@H](CCC(N)=O)C(=O)N[C@@H](CCCNC(=N)N)C(=O)N1CCC[C@H]1C(=O)N(C)[C@@H](CCCNC(=N)N)C(=O)N[C@@H](CC(C)C)C(=O)N[C@@H](CO)C(=O)N[C@@H](Cc1c[nH]cn1)C(=O)N[C@@H](CCCCN)C(=O)NCC(=O)N1[C@H](C(=O)N[C@@H](CCCC)C(=O)N2CCC[C@H]2C(=O)N[C@@H](Cc2ccc(Cl)cc2)C(=O)O)C[C@@H]2CCCC[C@@H]21)C(=O)O
Rat APJ receptor
  EC50 Rat APJ Receptor (GTPγS assay): 230 pM
Human APJ receptor
  EC50 Human APJ Receptor (GTPγS assay): 108 pM

B6: Apelin polypeptide SEQ ID NO: 424 (peptide)
peptide: Tridecanoyl-[γGlu][AEEA][AEEA]QRP[NMeR]LSH[βAla]GP[Nle]P[Phe(4-Cl)]-OH
SMILES: CCCCCCCCCCCCC(=O)N[C@@H](CCC(=O)NCCOCCOCC(=O)NCCOCCOCC(=O)N[C@@H](CCC(N)=O)C(=O)N[C@@H](CCCNC(=N)N)C(=O)N1CCC[C@H]1C(=O)N(C)[C@@H](CCCNC(=N)N)C(=O)N[C@@H](CC(C)C)C(=O)N[C@@H](CO)C(=O)N[C@@H](Cc1c[nH]cn1)C(=O)NCCC(=O)NCC(=O)N1CCC[C@H]1C(=O)N[C@@H](CCCC)C(=O)N1CCC[C@H]1C(=O)N[C@@H](Cc1ccc(Cl)cc1)C(=O)O)C(=O)O
Rat APJ receptor
  EC50 Rat APJ Receptor (GTPγS assay): 17200 pM
Human APJ receptor
  EC50 Human APJ Receptor (GTPγS assay): 4140 pM
